Test results reported in patent US20200206304A1, “METHODS AND COMPOSITIONS FOR EFFICIENT DELIVERY THROUGH MULTIPLE BIO BARRIERS” (Cedars-Sinai Medical Center, priority 2017, published 2020).
Like-named read-outs stand apart in the source and are kept apart here. Square brackets hold non-standard residues; d marks the D form. Ends that are not written are not given here.

How the values were obtained:
amyloid β (Aβ) plaques = amyloid β (Aβ) plaques (UniProt P05067); assay: in vivo labelling of Aβ plaques after i.v. injection of rhodamine-labelled conjugate into APPswe/PS1ΔE9 AD mice, dose 8X; fluorescence microscopy of brain sections
Chain of amyloid β (Aβ) plaques (P05067 672-713): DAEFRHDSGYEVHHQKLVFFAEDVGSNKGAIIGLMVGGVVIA

[1] = test system: blood-brain barrier (BBB); details: transgenic mice vs normal mice, doses 2×-8×
Description: AD-Mouse models: 6-8 month old […] (B6.Cg-Tg (APPswe/PS1ΔE9) 85Dbo/J hemizygous) mice were obtained from Jackson Laboratories. Mouse maintenance and experimental procedures followed the guidelines established by the Cedars Sinai Institutional Animal Care and Use Committee (IACUC Protocol #7416). Three to four mice of each sex were used for each experiment. Nanoconjugates were dissolved freshly in PBS (pH 7.4) prior to each experiment and injected intravenously (i.v.) into the lateral tail vein. […] Mice were anesthetized with isoflurane beforehand and their tails were briefly warmed to facilitate injections. The drug injection volume was kept constant at 150 μL. After each injection, mice were promptly returned to their cages. Brains were collected and preserved in OTC for immunostaining.
The brains were harvested and a 14 μm thick slices which were fixed and stained with DAPI to envision the nuclei
A comparison with normal brain was beneficial for understanding of the development of Alzheimer's disease.

glioblastoma GL261 = details: mouse, in vivo
Aβ plaque = molecular target: T1, Aβ plaque (Homo sapiens, UniProt P05067); assay: Percentage of total plaques labeled by mini nanodrugs in AD mice; assay type: in vivo,  (B6.Cg-Tg (APPswe/PS1ΔE9) 85Dbo/J hemizygous) mice
T1 construct: tissue Jackson Laboratories; host or cells: brain of 6-8 month old APPswe/PS1ΔE9 transgenic mice, plaques labelled in vivo after iv injection and counterstained on sections
T1 sequence (P05067 672-713 limits assumed): as the sequence (P05067 672-713) above
Description: Slides were air dries and fixed using freshly diluted 2% PFA for 5 minutes. The PFA was washed 3 timed with PBS, and brains were covered with 70% EtOH for 5 minutes before washing with dH2O for 2 minutes. 1× Amylo-Glo (Biosenses, #TR-300-AG 100×, diluted with PBS) was then added for 10 minutes. The slides were then washed with PBS (5 minutes) and dH2O (15 seconds) and mounted (Fluoromount-G, No DAPI, Invitrogen), and stored at 4° C. prior to imaging.
Brains were collected and preserved in OTC for immunostaining.

Brain (other hemisphere) = details: 2 h, PBS background subtracted
[2] = Zeta potential measurements (Zetasizer Nano ZS90); assay type: physicochemical; details: in PBS; voltage 150 mV
Description: Zeta Potential Measurements: Synthesized conjugates were characterized with respect to their ζ potential using a Zetasizer Nano ZS90 (Malvern Instruments, Malvern, UK). Ten microliter aliquots of nanoconjugate samples were diluted in 0.99 mL PBS, and the voltage applied was 150 mV. Data represent the mean of three measurements±their standard deviation.

brain cells = details: 0.274 μmol/kg
Description: For the particulate fluorescence analysis, images were converted to binary images, and then 5 ROIs 20*20 μm^2 were drawn per image. The area of each particle on the ROI was measured using the Image) particle analysis tool, where each particle was measured separately. Sizes were then summarized, sorted, and further analyzed using Minitab18 software (Minitab, Inc, State College, Pa., USA). Particulate areas observed between different conditions were compared via a one-way ANOVA combined with post-hoc Tukey tests to test differences between each experimental group.
A more reliable method to separate the particulate from the cellular fluorescence was reasoned to be by adjusting the levels of the image and converting it to a binary image, allowing the detection of only particulates eliminating interference of the diffused background. FIGS. 29A-29D illustrate intracellular fluorescence of mini nanodrugs.
Each ROI was converted to binary (black and white) image and the area and number of particles were quantified. 3 images per brain area were tested for 3 mice per group.
The particle content (example of ROI in FIG. 29A) then was measured. The average size of the particulate fluorescence is a proxy to estimate the intracellular load of fluorescent nanoconjugates following their injections. An example of such an analysis is shown in FIG. 29A: the yellow squares indicate regions of interest that were used to quantify particulate fluorescence. FIGS. 29B-29C summarize the average size of the intracellular fluorescence particles in the cortex ([…]), midbrain (FIG. 29C), and the hippocampus (FIG. 29C).

neurons = details: 0.274 μmol/Kg, vs PBS
neurons and astroglia = details: for % of positive cells, Cortex astroglia: astroglia (GFAP); for % of positive cells, Cortex neurons: neurons (Neun)
Description: Neuronal and glial counterstaining: In FIGS. 27A-27C, brain tissue from drug-injected mice was counterstained to determine if our nanoconjugates are taken up by neurons or glia. Cryosections ([…]) were air-dried for 10 min, fixed with 2% paraformaldehyde for 5 min, and then rinsed three times with PBS. […] The antibodies anti-Neun (Abcam, Cambridge, Mass., USA; AB104225) and anti-GFAP (Neuromics, Edina, Minn., USA; C1122102) were then diluted 1:500 in PBS-T and tissue sections incubated simultaneously with antibody solutions overnight at 4° C. in a humid chamber. Tissue sections were then washed five times with PBS-T and incubated in appropriate secondary antibody diluted 1:250 in PBS-T, for 2-4 h. After five washes in PBS at room temperature, sections were mounted between coverslips in Fluoromount-G with DAPI.
To this end, after systemic injection of our D-conjugates we counterstained brain tissue sections of hippocampus and cortex with anti-Neun to label neurons, and with anti-GFAP to label astroglia (FIGS. 27A-27C) and inspected the stained sections for red fluorescent particulates. […] Positive neurons and glia cells were counted after systemic injection of conjugates containing D1, D3, AC189 peptides, and of a control PBS (FIGS. 27A-27C).

brain parenchyma = details: cortex; 0.274 μmol/Kg
Description: To determine how nanoconjugate-associated fluorescence relates to the anatomy of the vasculature, the distance of each analyzed ROI was manually measured from the nearest blood vessel wall (using line tool in FIJI). For tumor bearing mice, 5 images per tumor tissue and 5 per brain tissue were analyzed for each mouse. Intensity values were then plotted against the location of the blood vessel wall and summarized in scatterplots (e.g., FIG. 14B).
Drug concentrations are listed with regard to total nanoconjugate content systemically injected. […] Referring to FIG. 14B, fluorescence measurements were obtained from 10 μm^2-sized regions of interest (ROI) that were randomly overlaid on regions devoid of vasculature shown as yellow squares on photograph 1 of FIG. 14A. Intensity measurements and positions were then obtained for each ROI and plotted against the location of the nearest blood vessel wall. FIG. 14C is set of charts: chart 1—Cortex; chart 2—Midbrain and chart 3 Hippocampus, illustrating average nanoconjugate fluorescence in the brain parenchyma measured following injections at four different drug concentrations. In this figure, fluorescence is shown as relative fluorescence, which is the measured nanoconjugate fluorescence after subtraction of autofluorescence imaged from PBS injected animals using similar acquisition settings.
FIG. 14B explores this relationship in a plot from all of the measurements (for each condition: 4 mice, 3-4 sections with 20 random measurements each). All fluorescence intensity measurements were conducted with 10 μm^2-sized regions of interest placed outside of tomato-lectin stained blood vessels (ROI as in Photograph 1 of FIG. 14A); the positions of these ROIs were then measured against the location of the nearest blood vessel wall to produce the scatterplot in FIG. 14B.
The resulting data were used as a metric to examine how well the mini nanodrug was able to travel from the vessels into the surrounding parenchyma and encounter brain cells. […] Nanoconjugate diffused fluorescence intensity vs. ‘distance from vasculature’ measurements in brain parenchyma of mice injected with nanoconjugates at a dose of 0.274 μmol/Kg. Fluorescence measurements were obtained from […] regions of interest (ROI) that were randomly overlaid on regions devoid of vasculature (shown by yellow squares in FIG. 22A). Intensity measurements and positions were then obtained for each ROI and plotted against the location of the nearest blood vessel wall.

[3] = molecular target: low density lipoprotein receptor-related protein-1 (LRP-1) (mouse (endogenous receptor of the injected BALB/C mice)) (UniProt Q91ZX7); assay: cell-based or functional assay
Chain of low density lipoprotein receptor-related protein-1 (LRP-1) (mouse (endogenous receptor of the injected BALB/C mice)) (Q91ZX7 20-4545): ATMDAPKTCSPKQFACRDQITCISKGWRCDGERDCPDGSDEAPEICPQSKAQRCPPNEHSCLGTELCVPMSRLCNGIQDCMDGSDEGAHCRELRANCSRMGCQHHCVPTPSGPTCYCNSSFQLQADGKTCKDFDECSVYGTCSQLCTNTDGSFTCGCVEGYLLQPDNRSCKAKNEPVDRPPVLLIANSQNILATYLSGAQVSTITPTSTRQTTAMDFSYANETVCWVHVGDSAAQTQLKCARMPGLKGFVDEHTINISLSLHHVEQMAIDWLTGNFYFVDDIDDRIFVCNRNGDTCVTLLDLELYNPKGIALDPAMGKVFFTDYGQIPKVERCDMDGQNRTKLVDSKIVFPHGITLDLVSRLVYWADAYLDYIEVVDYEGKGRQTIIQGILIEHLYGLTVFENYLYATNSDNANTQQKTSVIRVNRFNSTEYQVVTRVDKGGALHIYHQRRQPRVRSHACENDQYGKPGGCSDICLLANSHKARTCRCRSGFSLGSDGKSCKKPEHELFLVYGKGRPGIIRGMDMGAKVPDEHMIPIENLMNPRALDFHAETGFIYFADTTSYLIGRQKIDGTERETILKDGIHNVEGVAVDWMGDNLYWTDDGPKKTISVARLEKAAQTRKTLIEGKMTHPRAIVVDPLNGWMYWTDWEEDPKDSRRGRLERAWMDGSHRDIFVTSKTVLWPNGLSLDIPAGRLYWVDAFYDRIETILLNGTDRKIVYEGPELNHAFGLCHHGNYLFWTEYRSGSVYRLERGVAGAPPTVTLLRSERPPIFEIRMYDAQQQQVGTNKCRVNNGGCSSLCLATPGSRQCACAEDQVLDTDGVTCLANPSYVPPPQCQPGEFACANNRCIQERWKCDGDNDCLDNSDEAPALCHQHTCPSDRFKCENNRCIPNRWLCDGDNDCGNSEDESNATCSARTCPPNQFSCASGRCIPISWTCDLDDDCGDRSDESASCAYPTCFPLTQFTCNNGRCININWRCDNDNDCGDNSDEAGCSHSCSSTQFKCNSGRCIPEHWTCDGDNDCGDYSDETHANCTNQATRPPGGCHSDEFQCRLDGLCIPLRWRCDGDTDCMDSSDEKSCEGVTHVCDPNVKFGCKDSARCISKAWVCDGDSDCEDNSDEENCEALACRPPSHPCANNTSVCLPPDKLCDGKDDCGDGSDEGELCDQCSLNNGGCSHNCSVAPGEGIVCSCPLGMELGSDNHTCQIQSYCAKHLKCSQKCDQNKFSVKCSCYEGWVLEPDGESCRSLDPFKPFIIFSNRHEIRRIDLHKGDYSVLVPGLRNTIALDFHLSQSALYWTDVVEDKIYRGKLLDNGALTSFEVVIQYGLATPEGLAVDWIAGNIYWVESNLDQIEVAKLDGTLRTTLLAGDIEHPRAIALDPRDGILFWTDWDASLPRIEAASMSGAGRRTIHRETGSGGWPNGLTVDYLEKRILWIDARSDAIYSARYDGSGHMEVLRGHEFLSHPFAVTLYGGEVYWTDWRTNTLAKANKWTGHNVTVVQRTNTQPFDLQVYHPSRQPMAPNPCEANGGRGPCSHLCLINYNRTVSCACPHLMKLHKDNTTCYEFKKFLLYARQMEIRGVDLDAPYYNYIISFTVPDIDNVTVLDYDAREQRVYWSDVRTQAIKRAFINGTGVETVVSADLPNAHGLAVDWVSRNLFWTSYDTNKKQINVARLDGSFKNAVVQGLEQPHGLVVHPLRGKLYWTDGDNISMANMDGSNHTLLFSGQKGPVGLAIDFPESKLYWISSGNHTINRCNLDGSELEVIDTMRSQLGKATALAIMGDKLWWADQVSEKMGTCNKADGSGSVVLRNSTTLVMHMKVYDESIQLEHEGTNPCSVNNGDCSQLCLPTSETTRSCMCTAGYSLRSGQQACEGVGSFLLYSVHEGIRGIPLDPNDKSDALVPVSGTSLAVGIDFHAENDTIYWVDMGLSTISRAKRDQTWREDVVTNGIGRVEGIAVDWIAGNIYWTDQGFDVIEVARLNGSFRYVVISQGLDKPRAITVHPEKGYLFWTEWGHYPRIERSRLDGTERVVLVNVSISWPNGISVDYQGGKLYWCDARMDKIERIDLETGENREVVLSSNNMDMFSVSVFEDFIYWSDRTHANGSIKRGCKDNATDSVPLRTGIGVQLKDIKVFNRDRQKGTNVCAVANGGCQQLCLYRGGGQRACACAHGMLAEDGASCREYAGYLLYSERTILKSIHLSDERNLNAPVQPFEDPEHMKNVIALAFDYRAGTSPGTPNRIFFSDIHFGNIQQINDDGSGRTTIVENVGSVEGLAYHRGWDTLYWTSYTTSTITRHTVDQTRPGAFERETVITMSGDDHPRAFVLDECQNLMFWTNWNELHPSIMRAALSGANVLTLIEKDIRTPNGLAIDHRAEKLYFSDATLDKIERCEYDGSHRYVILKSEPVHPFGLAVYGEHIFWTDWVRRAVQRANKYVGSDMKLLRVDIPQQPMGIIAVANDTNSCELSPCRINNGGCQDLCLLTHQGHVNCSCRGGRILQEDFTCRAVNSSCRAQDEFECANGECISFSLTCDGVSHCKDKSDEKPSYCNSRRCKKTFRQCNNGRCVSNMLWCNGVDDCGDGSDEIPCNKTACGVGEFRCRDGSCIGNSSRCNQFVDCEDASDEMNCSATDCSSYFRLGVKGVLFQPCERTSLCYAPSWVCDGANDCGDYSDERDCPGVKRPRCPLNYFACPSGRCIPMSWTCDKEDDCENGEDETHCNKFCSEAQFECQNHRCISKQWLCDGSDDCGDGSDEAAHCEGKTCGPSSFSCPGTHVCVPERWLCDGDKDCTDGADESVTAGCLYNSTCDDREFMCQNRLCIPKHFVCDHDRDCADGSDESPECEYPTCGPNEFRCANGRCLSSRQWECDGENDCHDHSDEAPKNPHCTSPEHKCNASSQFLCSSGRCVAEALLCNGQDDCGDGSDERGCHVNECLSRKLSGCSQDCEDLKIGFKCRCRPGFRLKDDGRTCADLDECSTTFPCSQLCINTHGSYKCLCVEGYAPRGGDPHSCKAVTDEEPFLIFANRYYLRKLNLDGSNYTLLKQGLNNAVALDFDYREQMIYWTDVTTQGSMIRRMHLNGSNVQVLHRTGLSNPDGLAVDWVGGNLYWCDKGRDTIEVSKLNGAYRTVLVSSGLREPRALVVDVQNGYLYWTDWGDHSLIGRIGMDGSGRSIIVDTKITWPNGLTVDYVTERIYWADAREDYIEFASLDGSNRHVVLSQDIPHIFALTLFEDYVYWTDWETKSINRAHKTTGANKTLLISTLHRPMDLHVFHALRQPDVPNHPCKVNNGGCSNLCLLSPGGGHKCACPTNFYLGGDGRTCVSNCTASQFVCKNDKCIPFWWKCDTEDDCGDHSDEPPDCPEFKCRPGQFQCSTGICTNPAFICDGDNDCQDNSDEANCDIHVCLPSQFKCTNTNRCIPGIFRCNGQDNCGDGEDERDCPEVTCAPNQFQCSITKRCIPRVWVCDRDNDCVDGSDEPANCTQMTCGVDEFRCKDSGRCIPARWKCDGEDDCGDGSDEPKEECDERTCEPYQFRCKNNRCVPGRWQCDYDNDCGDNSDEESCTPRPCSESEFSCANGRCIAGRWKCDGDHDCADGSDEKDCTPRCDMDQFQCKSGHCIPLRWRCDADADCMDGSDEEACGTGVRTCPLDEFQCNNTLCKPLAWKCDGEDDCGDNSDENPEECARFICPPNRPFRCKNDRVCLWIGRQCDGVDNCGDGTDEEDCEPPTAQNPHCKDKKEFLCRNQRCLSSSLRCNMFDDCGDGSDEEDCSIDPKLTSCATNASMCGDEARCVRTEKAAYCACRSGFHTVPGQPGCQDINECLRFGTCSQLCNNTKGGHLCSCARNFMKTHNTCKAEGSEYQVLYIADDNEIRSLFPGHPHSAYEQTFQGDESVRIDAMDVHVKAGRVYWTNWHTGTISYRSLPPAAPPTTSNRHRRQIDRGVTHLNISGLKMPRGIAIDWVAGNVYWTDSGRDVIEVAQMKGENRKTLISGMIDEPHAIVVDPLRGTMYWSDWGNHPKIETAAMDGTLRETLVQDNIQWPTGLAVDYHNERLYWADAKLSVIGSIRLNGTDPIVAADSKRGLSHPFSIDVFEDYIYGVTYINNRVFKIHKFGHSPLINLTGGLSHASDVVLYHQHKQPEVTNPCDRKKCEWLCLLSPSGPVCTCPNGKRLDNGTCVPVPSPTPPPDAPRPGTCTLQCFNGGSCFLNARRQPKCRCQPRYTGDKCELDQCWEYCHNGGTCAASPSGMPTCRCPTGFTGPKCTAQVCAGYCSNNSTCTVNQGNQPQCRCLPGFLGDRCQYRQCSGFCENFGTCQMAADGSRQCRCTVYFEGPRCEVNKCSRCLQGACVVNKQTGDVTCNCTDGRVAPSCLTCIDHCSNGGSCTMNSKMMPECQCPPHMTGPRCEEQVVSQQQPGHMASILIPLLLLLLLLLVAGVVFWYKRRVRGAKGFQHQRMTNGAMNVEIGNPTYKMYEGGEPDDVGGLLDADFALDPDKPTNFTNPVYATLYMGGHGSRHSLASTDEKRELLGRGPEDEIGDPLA

[4] = injected dose 8X (0.55 μmol/Kg)

PMLA/LLL/AP2/rhodamine
Percentage of total plaques labeled by the reagents (amyloid β (Aβ) plaques): 1.23%

PMLA/LLL/B6/rhodamine (peptide 1 CGHKAKGPRK; peptide 2 Leu-Leu-Leu; also: conjugated to polymalic acid (PMLA), rhodamine label) [P/LLL/B6]
BBB permeation efficacy in AD brain (in words) [1]: A decrease was not observed
dose-dependent change of tumor fluorescence between 1× and 4× (glioblastoma GL261): 23 fold
Percentage of total plaques labeled by the reagents (Aβ plaque; [4]): 3.3%
Brain (other hemisphere) fluorescence (Brain (other hemisphere); dose 1X): 1.2
Brain (other hemisphere) fluorescence (Brain (other hemisphere); dose 4X): 6.8
ζ potential [2]: −6.1 mV

PMLA/LLL/AP2/Miniap4/rhodamine [P/LLL/AP2/M4]
ζ potential [2]: −5.5 mV

PMLA/LLL/D3/rhodamine (peptide 1 RPRTRLHTHRNRC; peptide 2 Leu-Leu-Leu; not fully specified (some residues)) [P/LLL/D3]
increase of particle diameter in comparison with PBS (brain cells): 2.5 fold
average fluorescence per neuron nucleus (in words) (neurons): significantly higher than for PBS
Tumor fluorescence (glioblastoma GL261): 92.6
ratio Tumor/Brain (glioblastoma GL261): 11.9
#Labeled/#total counted cells, Cortex astroglia (neurons and astroglia): [7/46]
% of positive cells, Cortex astroglia (neurons and astroglia): 15.2%
#Labeled/#total counted cells, Cortex neurons (neurons and astroglia): [286/300]
% of positive cells, Cortex neurons (neurons and astroglia): 95.3%
#Labeled/#total counted cells, Hippocampus astroglia (neurons and astroglia): [14/47]
% of positive cells, Hippocampus astroglia (neurons and astroglia): 29.8%
#Labeled/#total counted cells, Hippocampus neurons (neurons and astroglia): [894/967]
% of positive cells, Hippocampus neurons (neurons and astroglia): 92.45%
Percentage of total plaques labeled by the reagents (Aβ plaque; injected dose 2X): 0% all in a single box
Percentage of total plaques labeled by the reagents (Aβ plaque; injected dose 4X): 0%
Percentage of total plaques labeled by the reagents (Aβ plaque; injected dose 6X): 0%
Percentage of total plaques labeled by the reagents (Aβ plaque; [4]): 21.1%
cortex Y intercepts of fluorescence vs distance curves (exponential fits) (brain parenchyma): 21.1
Brain (other hemisphere) fluorescence (Brain (other hemisphere); dose 4X): 7.8

PMLA/M4/rhodamine (KAPETALD; not fully specified) [P/M4]
ζ potential [2]: −14.6 mV

PMLA/LLL/rhodamine (Leu-Leu-Leu; also: conjugated to PMLA with rhodamine, link not given here) [P/LLL, polymalic acid with tri-leucine (40%) and rhodamine]
Percentage of total plaques labeled by the reagents (Aβ plaque; [4]): 4.5%

PMLA/LLL/B6/rhodamine
Percentage of total plaques labeled by the reagents (amyloid β (Aβ) plaques): 3.3%

PMLA/LLL/M4/rhodamine (peptide 1 KAPETALD; peptide 2 Leu-Leu-Leu; not fully specified) [P/LLL/M4]
Tumor fluorescence (glioblastoma GL261): 86.2
ratio Tumor/Brain (glioblastoma GL261): 22.8
Percentage of total plaques labeled by the reagents (Aβ plaque; [4]): 0%
Brain (other hemisphere) fluorescence (Brain (other hemisphere); dose 4X): 3.8
ζ potential [2]: −10.4 mV

PMLA/LLL/rhodamine
Percentage of total plaques labeled by the reagents (amyloid β (Aβ) plaques): 4.5%

PMLA/LLL/D1/rhodamine (peptide 1 QSHYRHISPAQVC; peptide 2 Leu-Leu-Leu; not fully specified) [P/LLL/D1]
increase of particle diameter in comparison with PBS (brain cells): 2.5 fold
average fluorescence per neuron nucleus (in words) (neurons): significantly higher than for PBS
Tumor fluorescence (glioblastoma GL261): 86.6
ratio Tumor/Brain (glioblastoma GL261): 16.4
#Labeled/#total counted cells, Cortex astroglia (neurons and astroglia): [5/40]
% of positive cells, Cortex astroglia (neurons and astroglia): 12.5%
#Labeled/#total counted cells, Cortex neurons (neurons and astroglia): [119/141]
% of positive cells, Cortex neurons (neurons and astroglia): 84.4%
#Labeled/#total counted cells, Hippocampus astroglia (neurons and astroglia): [4/57]
% of positive cells, Hippocampus astroglia (neurons and astroglia): 7.0%
#Labeled/#total counted cells, Hippocampus neurons (neurons and astroglia): [286/433]
% of positive cells, Hippocampus neurons (neurons and astroglia): 66.0%
Percentage of total plaques labeled by the reagents (Aβ plaque; [4]): 0%
cortex Y intercepts of fluorescence vs distance curves (exponential fits) (brain parenchyma): 21.6
Brain (other hemisphere) fluorescence (Brain (other hemisphere); dose 4X): 5.3

B1: PMLA/LLL/D1/rhodamine (peptide)
peptide 1: [dQ][dS][dH][dY][dR][dH][dI][dS][dP][dA][dQ][dV]C
peptide 2: Leu-Leu-Leu
modifications: not fully specified (some residues, N-terminus); also: LLL amide-linked to PMLA carboxylates
P/LLL/D1/rh fluorescence intensity in the brain parenchyma (BBB crossing) on co-injection of a 70-fold molar excess of AP2 [3]: 54.5%
P/LLL/D1/rh fluorescence intensity in the parenchyma (transcytosis) with 21 µmol/kg free AP2 [3]: 50%
